# Results as given in patent US20240417458A1 (DISC MEDICINE, published 2024).
# T1: soluble human RGMc (human, UniProt Q6ZVN8 36-400)
# T1 construct: also called huRGMc; soluble hRGMc
# T1 sequence: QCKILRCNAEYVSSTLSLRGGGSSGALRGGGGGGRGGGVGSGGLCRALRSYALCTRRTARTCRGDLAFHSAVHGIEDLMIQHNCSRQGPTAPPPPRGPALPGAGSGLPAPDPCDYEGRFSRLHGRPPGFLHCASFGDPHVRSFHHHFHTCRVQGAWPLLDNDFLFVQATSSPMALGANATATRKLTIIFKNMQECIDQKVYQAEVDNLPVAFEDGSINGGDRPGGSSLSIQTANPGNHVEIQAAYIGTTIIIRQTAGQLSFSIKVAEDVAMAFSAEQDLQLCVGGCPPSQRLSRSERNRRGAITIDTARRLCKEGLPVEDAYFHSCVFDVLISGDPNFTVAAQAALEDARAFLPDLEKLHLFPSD
# T2: soluble rat RGMa (rat, UniProt D4A188 48-421)
# T2 construct: Soluble antigen in BIAcore
# T2 sequence: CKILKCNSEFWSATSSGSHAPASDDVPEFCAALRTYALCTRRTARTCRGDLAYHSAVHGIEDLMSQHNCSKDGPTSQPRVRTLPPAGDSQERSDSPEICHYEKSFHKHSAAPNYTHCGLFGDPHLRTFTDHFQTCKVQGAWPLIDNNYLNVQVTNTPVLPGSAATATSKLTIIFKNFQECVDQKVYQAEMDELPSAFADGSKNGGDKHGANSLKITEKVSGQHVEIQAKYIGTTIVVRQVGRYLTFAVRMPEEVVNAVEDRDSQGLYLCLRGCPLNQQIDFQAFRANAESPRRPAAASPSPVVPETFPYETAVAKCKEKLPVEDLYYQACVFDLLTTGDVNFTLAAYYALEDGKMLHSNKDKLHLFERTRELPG
# T3: soluble human RGMa (human, UniProt Q96B86 48-422, limits assumed)
# T3 construct: Soluble antigen in BIAcore; also called huRGMa; repulsive guidance molecule A
# T3 sequence (looked up): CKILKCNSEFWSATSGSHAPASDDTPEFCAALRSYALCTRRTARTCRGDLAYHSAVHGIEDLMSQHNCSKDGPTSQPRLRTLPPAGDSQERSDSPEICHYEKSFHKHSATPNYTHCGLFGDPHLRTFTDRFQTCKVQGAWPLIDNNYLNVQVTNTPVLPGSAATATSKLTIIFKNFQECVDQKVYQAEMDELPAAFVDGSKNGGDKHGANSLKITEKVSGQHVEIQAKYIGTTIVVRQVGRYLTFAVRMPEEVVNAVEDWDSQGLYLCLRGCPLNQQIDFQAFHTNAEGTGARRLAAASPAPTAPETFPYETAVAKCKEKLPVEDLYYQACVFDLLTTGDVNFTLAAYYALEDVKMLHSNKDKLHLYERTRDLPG
# T4: membrane-bound human RGMa (human, UniProt Q96B86 169-424)
# T4 sequence (looked up): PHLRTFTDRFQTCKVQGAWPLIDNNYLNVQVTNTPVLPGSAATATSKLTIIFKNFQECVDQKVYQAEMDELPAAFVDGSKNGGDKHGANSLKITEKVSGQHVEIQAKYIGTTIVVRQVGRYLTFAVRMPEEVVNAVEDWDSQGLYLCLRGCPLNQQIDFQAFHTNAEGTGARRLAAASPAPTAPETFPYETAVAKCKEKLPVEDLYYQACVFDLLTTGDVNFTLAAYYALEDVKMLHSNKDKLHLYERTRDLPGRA
# T5: membrane-bound human RGMc (human, UniProt Q6ZVN8 36-400)
# T5 sequence: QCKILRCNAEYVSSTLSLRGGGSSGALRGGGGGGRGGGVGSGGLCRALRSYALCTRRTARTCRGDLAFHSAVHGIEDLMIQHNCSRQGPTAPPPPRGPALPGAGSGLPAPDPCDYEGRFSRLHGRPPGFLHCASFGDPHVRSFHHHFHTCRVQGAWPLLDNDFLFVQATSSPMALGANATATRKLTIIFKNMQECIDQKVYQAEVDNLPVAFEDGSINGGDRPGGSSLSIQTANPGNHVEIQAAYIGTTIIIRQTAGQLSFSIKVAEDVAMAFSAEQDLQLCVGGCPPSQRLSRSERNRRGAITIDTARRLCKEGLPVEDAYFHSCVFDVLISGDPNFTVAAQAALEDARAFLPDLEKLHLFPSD
# How the values were obtained:
# soluble human RGMc [1] = target: T1, soluble human RGMc; test: SPR (BIAcore);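 further: Anti-HJV antibodies, binding affinity to soluble human RGMc measured by BIAcore surface plasmon resonance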
# Method: (§1) Binding affinities of the anti-HJV antibodies to soluble human RGMa, Rat RGMa and human RGMc were measured by BIAcore analysis.
# soluble rat RGMa = target: T2, soluble rat RGMa; test: SPR (BIAcore);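 further: binding kinetics and affinity of anti-HJV antibodies toward soluble rat RGMa, determined by SPR on a BIAcore instrument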
# Method: as §1
# soluble human RGMa = target: T3, soluble human RGMa; test: SPR (BIAcore);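 further: Anti-HJV antibodies tested for binding against soluble human RGMa by surface plasmon resonance on a BIAcore instrument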
# Method: as §1
# [2] = target: T4, membrane-bound human RGMa; test: cell-based or functional assay
# [3] = target: T4, membrane-bound human RGMa; test: cell-based or functional assay; remark: listed apart in the source
# soluble human RGMc [4] = target: T1, soluble human RGMc; test: SPR (BIAcore), soluble hRGMc; summary table
# [5] = target: T5, membrane-bound human RGMc; test: cell-based or functional assay
# [6] = target: T5, membrane-bound human RGMc; test: cell-based or functional assay; remark: listed apart in the source
# [7] = target: T5, membrane-bound human RGMc; test: cell-based or functional assay; remark: listed apart in the source
# [8] = target: T4, membrane-bound human RGMa; test: cell-based or functional assay; remark: listed apart in the source
Binder,Kd (soluble human RGMc [1]) [nM],koff (soluble human RGMc [1]) [s⁻¹],kon (soluble human RGMc [1]) [M⁻¹ s⁻¹],Kd (soluble rat RGMa) [nM],koff (soluble rat RGMa) [s⁻¹],kon (soluble rat RGMa) [M⁻¹ s⁻¹],Kd (soluble human RGMa) [nM],koff (soluble human RGMa) [s⁻¹],kon (soluble human RGMa) [M⁻¹ s⁻¹],IC50 (read off the curve) [2] [nM],"IC50 (nM), BMP reporter assay for RGMa [3] [nM]",Kd (soluble human RGMc [4]) [nM],koff (soluble human RGMc [4]) [s⁻¹],kon (soluble human RGMc [4]) [M⁻¹ s⁻¹],"IC50 (nM), BMP reporter assay for RGMc (BRE-Luc, HEK293) [5] [nM]",IC50 (read off the curve) [6] [nM],"Potency on membrane hRGMc (RGMc/BMP reporter assay), IC50 [7] [nM]","Potency on membrane hRGMa (RGMa/BMP reporter assay), IC50 [8] [nM]"
"hHA-007 (antibody, human IgG1, kappa, L234A L235A, V domains shown, hIgG1 L234A, L235A, kappa) VH: EVQLVESGGGLVQPGGSLRLSCAASGFTFSNYGMNWIRQAPGKGLEWIGMIYYDSSDKHYADSVKGRFTISRDNSKNTLYLQMNSLRAEDTAVYYCAKGTTPDVWGQGTMVTVSS VL: DVVLTQSPLSLPVTLGQPASISCRSSQSLEESDGYTFLHWFQQRPGQSPRLLIYEVSNRFSGVPDRFSGSGSGTDFTLKISRVEAEDVGVYYCFQATHDPVTFGQGTKLEIKR",0.425,0.00215,5.05e+06,< 0.002,< 1e-06,510000,0.15,8.9e-05,590000,–,–,–,–,–,–,–,–,–
"hHA-006 (antibody, human IgG1, kappa, L234A L235A, V domains shown, hIgG1 L234A, L235A, kappa) VH: EVQLVESGGGLVQPGGSLRLSCAASGFTFSYYGMNWIRQAPGKGLEWIGMIYYDSSEKHYADSVKGRFTISRDNSKNTLYLQMNSLRAEDTAVYYCAKGTTPDYWGQGTMVTVSS VL: DVVLTQSPLSLPVTLGQPASISCRSSQSLEDSDGGTFLEWFQQRPGQSPRLLIYDVSSRFSGVPDRFSGSGSGTDFTLKISRVEAEDVGVYYCFQATHDPLTFGQGTKLEIKR",0.385,0.00255,6.65e+06,0.032,3e-05,940000,0.12,0.00014,1.2e+06,–,–,–,–,–,–,–,–,–
"hHA-004 (antibody, human IgG1, kappa, L234A L235A, V domains shown, hIgG1 L234A, L235A, kappa) VH: EVQLVESGGGLVQPGGSLRLSCAASGFTFSNYGMNWIRQAPGKGLEWIGMIYYDSSEKHYADSVKGRFTISRDNSKNTLYLQMNSLRAEDTAVYYCAKGTTPDYWGQGTMVTVSS VL: DVVLTQSPLSLPVTLGQPASISCRSSQSLESSDGDTFLEWFQQRPGQSPRLLIYDVSTRFSGVPDRFSGSGSGTDFTLKISRVEAEDVGVYYCFQVTHDPVTFGQGTKLEIKR",0.13,0.00104,7.85e+06,< 0.00094,< 1e-06,1.1e+06,0.015,2.2e-05,1.4e+06,~2,2.01,0.13,0.00104,7.85e+06,0.312,~0.3,0.31,2

# More lines, now with the values ahead:
Kd (soluble human RGMc [1]) [nM],koff (soluble human RGMc [1]) [s⁻¹],kon (soluble human RGMc [1]) [M⁻¹ s⁻¹],Kd (soluble rat RGMa) [nM],koff (soluble rat RGMa) [s⁻¹],kon (soluble rat RGMa) [M⁻¹ s⁻¹],Kd (soluble human RGMa) [nM],koff (soluble human RGMa) [s⁻¹],kon (soluble human RGMa) [M⁻¹ s⁻¹],IC50 (read off the curve) [2] [nM],"IC50 (nM), BMP reporter assay for RGMa [3] [nM]",Kd (soluble human RGMc [4]) [nM],koff (soluble human RGMc [4]) [s⁻¹],kon (soluble human RGMc [4]) [M⁻¹ s⁻¹],"IC50 (nM), BMP reporter assay for RGMc (BRE-Luc, HEK293) [5] [nM]",IC50 (read off the curve) [6] [nM],"Potency on membrane hRGMc (RGMc/BMP reporter assay), IC50 [7] [nM]","Potency on membrane hRGMa (RGMa/BMP reporter assay), IC50 [8] [nM]",Binder
0.445,0.0044,9.9e+06,0.039,2.6e-05,660000,0.12,0.0001,850000,–,–,–,–,–,–,–,–,–,"hHA-010 (antibody, human IgG1, kappa, L234A L235A, V domains shown, hIgG1 L234A, L235A, kappa) VH: EVQLVESGGGLVQPGGSLRLSCAASGFTFSNYGMNWVRQAPGKGLEWIGMIYYDSSEKHYADSVKGRFTISRDNSKNTLYLQMNSLRAEDTAVYYCAKGTTPDKWGQGTMVTVSS VL: DVVLTQSPLSLPVTLGQPASISCRSSQSLEESDGYTFLEWFQQRPGQSPRLLIYEVSHRFSGVPDRFSGSGSGTDFTLKISRVEAEDVGVYYCFQATHDPLTFGQGTKLEIKR"
0.32,0.0136,4.15e+07,0.15,0.00021,1.4e+06,0.13,0.00025,1.9e+06,–,–,–,–,–,–,–,–,–,"hHA-005 (antibody, human IgG1, kappa, L234A L235A, V domains shown, hIgG1 L234A, L235A, kappa) VH: EVQLVESGGGLVQPGGSLRLSCAASGFTFSNYGMNWIRQAPGKGLEWIGMIYYDSSEKHYADSVKGRFTISRDNSKNTLYLQMNSLRAEDTAVYYCAKGTTPDYWGQGTMVTVSS VL: DVVLTQSPLSLPVTLGQPASISCRSSQSLEESDGYTFLEWFQQRPGQSPRLLIYDVSERFSGVPDRFSGSGSGTDFTLKISRVEAEDVGVYYCFQATYDPLTFGQGTKLEIKR"
